The target of the experiment is Gallus gallus NET1ΔC loop cd (R374A H375A K395A H399A R400A K401A) (Gallus gallus, UniProt Q90922 26-458, R374A | H375A | K395A | H399A | R400A | K401A). Kind of experiment: ELISA; glypican-3 coated (0.5 µg/well); soluble NET1ΔC alone (0.5–500 nM, or 500 nM pre-incubated with HO-dp20 for competition); detection with polyclonal NET1 antibody. Conditions: both partners purified.

B1: glypican-3 (AF185614 aa 25-557 R357A) (domain or fragment)
chain: QPPPPPDATCHQVRSFFQRLQPGLKWVPETPVPGSDLQVCLPKGPTCCSRKMEEKYQLTARLNMEQLLQSASMELKFLIIQNAAVFQEAFEIVVRHAKNYTNAMFKNNYPSLTPQAFEFVGEFFTDVSLYILGSDINVDDMVNELFDSLFPVIYTQMMNPGLPESVLDINECLRGARRDLKVFGSFPKLIMTQVSKSLQVTRIFLQALNLGIEVINTTDHLKFSKDCGRMLTRMWYCSYCQGLMMVKPCGGYCNVVMQGCMAGVVEIDKYWREYILSLEELVNGMYRIYDMENVLLGLFSTIHDSIQYVQKNGGKLTTTIGKLCAHSQQRQYASAYYPEDLFIDKKILKVAHVEHEETLSSRRRELIQKLKSFINFYSALPGYICSHSPVAENDTLCWNGQELVERYSQKAARNGMKNQFNLHELKMKGPEPVVSQIIDKLKHINQLLRTMSVPKGKVLDKSLDEEGLESGDCGDDEDECIGSSGDGMVKVKNQLRFLAELAYDLDVDDAPGNKQHGNQKDNEITTSHSVGNM
modifications: three extended GAG chains are attached to the core protein
notes: Glypican-3, AF185614 aa 25-557; Heparan sulphate proteoglycan; also called GPC3; source: HEK 293 (sleeping beauty transposon system, BM40 signal peptide), purified (Strep-Tactin)
For the molecule B1, the binding result is “binds”.

Values taken from PMC9984387, “The dynamic nature of netrin-1 and the structural basis for glycosaminoglycan fragment-induced filament formation” (Nature Communications, 2023).
